The target of this series is T1, Rev-Erbα (UniProt P20393 1-614).
T1 sequence: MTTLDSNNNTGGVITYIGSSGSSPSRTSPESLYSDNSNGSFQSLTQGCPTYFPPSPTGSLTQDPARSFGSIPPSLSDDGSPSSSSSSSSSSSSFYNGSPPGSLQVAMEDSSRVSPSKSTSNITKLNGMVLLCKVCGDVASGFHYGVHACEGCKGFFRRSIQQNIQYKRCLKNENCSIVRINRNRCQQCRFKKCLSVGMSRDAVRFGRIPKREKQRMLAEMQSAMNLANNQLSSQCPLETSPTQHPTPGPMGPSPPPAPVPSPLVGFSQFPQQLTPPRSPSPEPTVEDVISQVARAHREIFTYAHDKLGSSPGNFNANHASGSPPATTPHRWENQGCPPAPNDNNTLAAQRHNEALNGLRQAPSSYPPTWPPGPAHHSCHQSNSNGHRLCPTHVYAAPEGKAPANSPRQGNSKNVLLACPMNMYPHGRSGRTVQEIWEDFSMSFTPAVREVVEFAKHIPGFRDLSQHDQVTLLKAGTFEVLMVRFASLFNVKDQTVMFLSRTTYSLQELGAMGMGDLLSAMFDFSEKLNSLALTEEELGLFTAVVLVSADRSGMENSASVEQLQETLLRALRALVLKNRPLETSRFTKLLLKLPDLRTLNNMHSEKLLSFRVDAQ
The experiment in a line: EMSA.

B1: RevDR2 (dsDNA)
DNA 1: AGCTCCAACTAGGTCACTAGGTCAAAGGGA
DNA 2: TCGATCCCTTTGACCTAGTGACCTAGTTGG
Turning to B1, the binding result is recorded as “binds”.

For the origin of these results see publication PMC3288673.
